± gives the uncertainty stated by the source.
Assay: self-splicing fitness, log relative to wild type (ln ratio); higher = more splicing; Tetrahymena group I intron in knt gene, E. coli kanamycin selection, DiMSum; sequences stand for … in CUCUCU…GGAGGGAAAAGUUAUCAGGCAUGCACCUGGUAGCUAGUCUUUAAACCAAUAGAUUGCAUCGGUUUAAAAGGCAAGACCGUCAAAUUGCGGGAAAGGGGUCAACAGCCGUUCAGUACCAAGUCUCAGGGGAAACUUUGAGAUGGCCUUGCAAAGGGUAUGGUAAUAAGCUGACGGACAUGGUCCUAACCACGCAGCCAAGUCCUAAGUCAACAGAUCUUCUGUUGAUAUGGAUGCAGUUCACAGACUAAAUGUCGGUCGGGGAAGAUGUAUUCUUCUCAUAAGAUAUAGUCGGACCUCUCCUUAAUGGGAGCUAGCGGAUGAAGUGAUGCAACACUGGAGCCGCUGGGAACUAAUUUGUAUGCGAAAGUAUAUUGAUUAGUUUUGGAGUACUCGUGGUCG
Outline: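 Library with all eight P1ex-region intron nucleotides randomised, intron inside the knt kanamycin-resistance gene on pET-22b(+), in E. coli BL21(DE3). Cells grew overnight at 37°C or 30°C on LB agar with or without 25 μg/mL kanamycin (plus 100 μg/mL carbenicillin, 50 μM IPTG, 0.2% rhamnose), in six replicate transformations. Pooled colonies were amplicon-sequenced on Illumina HiSeq 2500. DiMSum fitness is the error-weighted combination of wild-type-normalised replicate fold changes, kanamycin versus none.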

| Sequence | self-splicing fitness (ln) (30 °C) | self-splicing fitness (ln) (37 °C) |
| --- | --- | --- |
| GACUAGCAAUAUUACGUCUU | -0.971 ± 0.099 | -1.39 ± 0.15 |
| GACUAGCAAUAUUACGUGUC | -2.59 ± 0.42 |  |
| GACUAGCAAUAUUACGUGUU | -2.22 ± 0.11 | -2.07 ± 0.17 |
| GACUAGCAAUAUUACGUUAC | -2.46 ± 0.19 | -1.84 ± 0.22 |
| GACUAGCAAUAUUACGUUCC | -3.69 ± 0.3 | -2.17 ± 0.23 |
| GAGAAGCAAUAUUACGAACA | -1.05 ± 0.17 | -1.57 ± 0.2 |
| GAGAAGCAAUAUUACGACUU | -1.9 ± 0.14 | -1.14 ± 0.14 |
| GAGAAGCAAUAUUACGAUAU | -2.18 ± 0.16 | -0.855 ± 0.15 |
| GAGAAGCAAUAUUACGAUUC | -0.752 ± 0.094 | -0.653 ± 0.15 |
| GAGAAGCAAUAUUACGAUUU | -0.24 ± 0.081 | 0.493 ± 0.087 |
| GAGAAGCAAUAUUACGCAGU | -3.98 ± 0.23 | -2.06 ± 0.17 |
| GAGAAGCAAUAUUACGCCGA | -2.1 ± 0.24 | -0.228 ± 0.17 |
| GAGAAGCAAUAUUACGCCUG | -0.32 ± 0.098 | -0.385 ± 0.17 |
| GAGAAGCAAUAUUACGCGCG | -0.394 ± 0.14 | 0.218 ± 0.16 |
| GAGAAGCAAUAUUACGCGGU | -2.38 ± 0.16 | -0.663 ± 0.16 |
| GAGAAGCAAUAUUACGCUCG | -1.07 ± 0.14 | 0.735 ± 0.18 |
| GAGAAGCAAUAUUACGGAGA | -3.8 ± 0.24 | -2.04 ± 0.28 |
| GAGAAGCAAUAUUACGGGCA | -0.782 ± 0.1 | -0.441 ± 0.087 |
| GAGAAGCAAUAUUACGGUAU | -1.67 ± 0.096 | -1.79 ± 0.17 |
| GAGAAGCAAUAUUACGGUUA | -1.13 ± 0.12 | -0.315 ± 0.13 |
| GAGAAGCAAUAUUACGUAUG | -2.37 ± 0.14 | -1.29 ± 0.14 |
| GAGAAGCAAUAUUACGUAUU | -3.16 ± 0.14 | -3.08 ± 0.23 |
| GAGAAGCAAUAUUACGUCGU | -2.16 ± 0.075 | -0.855 ± 0.077 |
| GAGAAGCAAUAUUACGUGCA | -0.762 ± 0.084 | -0.666 ± 0.094 |
| GAGCAGCAAUAUUACGAAAU | -2.45 ± 0.21 | -1.84 ± 0.21 |

| Sequence | self-splicing fitness (ln) (30 °C) | self-splicing fitness (ln) (37 °C) |
| --- | --- | --- |
| GAGCAGCAAUAUUACGACUC | -2.56 ± 0.19 | 0.053 ± 0.17 |
| GAGCAGCAAUAUUACGAUAA | -2.23 ± 0.29 | -1.76 ± 0.24 |
| GAGCAGCAAUAUUACGAUCC | -2.45 ± 0.19 | -0.494 ± 0.17 |
| GAGCAGCAAUAUUACGAUGU | -3.19 ± 0.15 | -1.37 ± 0.11 |
| GAGCAGCAAUAUUACGCCCG | -1.84 ± 0.25 | -0.798 ± 0.27 |
| GAGCAGCAAUAUUACGCGCC | -3.87 ± 0.28 | -3.17 ± 0.35 |
| GAGCAGCAAUAUUACGCUUC | -2.37 ± 0.28 |  |
| GAGCAGCAAUAUUACGGAAC | -3.14 ± 0.23 | -2.13 ± 0.16 |
| GAGCAGCAAUAUUACGGACC | -0.847 ± 0.11 | -0.206 ± 0.16 |
| GAGCAGCAAUAUUACGGAGG | -3.98 ± 0.21 | -2.3 ± 0.21 |
| GAGCAGCAAUAUUACGGCGG | -2.18 ± 0.11 | -1.77 ± 0.16 |
| GAGCAGCAAUAUUACGGGCA | -1.48 ± 0.17 | -0.674 ± 0.13 |
| GAGCAGCAAUAUUACGGGGA | -2.84 ± 0.21 | -2.05 ± 0.14 |
| GAGCAGCAAUAUUACGGGGG | -3.36 ± 0.26 | -2.46 ± 0.32 |
| GAGCAGCAAUAUUACGGGUA | -3.4 ± 0.16 | -2.36 ± 0.14 |
| GAGCAGCAAUAUUACGGUGA | -2.25 ± 0.12 | -0.646 ± 0.13 |
| GAGCAGCAAUAUUACGUAAG | -2.59 ± 0.17 | -1.45 ± 0.18 |
| GAGCAGCAAUAUUACGUCCG | -0.984 ± 0.3 | -0.968 ± 0.41 |
| GAGCAGCAAUAUUACGUCGA | -1.51 ± 0.12 | -0.741 ± 0.12 |
| GAGCAGCAAUAUUACGUGCA | -1.15 ± 0.071 | -0.471 ± 0.081 |
| GAGGAGCAAUAUUACGAAAC | -2.22 ± 0.34 | -1.87 ± 0.33 |
| GAGGAGCAAUAUUACGAACC | -2.84 ± 0.42 | -1.19 ± 0.38 |
| GAGGAGCAAUAUUACGACAU | -2.069 ± 0.02 | -1.21 ± 0.036 |
| GAGGAGCAAUAUUACGACCA | -2.57 ± 0.4 |  |
| GAGGAGCAAUAUUACGAUAA | -2.91 ± 0.26 | -1.35 ± 0.33 |

| Sequence | self-splicing fitness (ln) (30 °C) | self-splicing fitness (ln) (37 °C) |
| --- | --- | --- |
| GAGGAGCAAUAUUACGAUCU | -0.772 ± 0.12 | -0.217 ± 0.12 |
| GAGGAGCAAUAUUACGCCCA | 0.0821 ± 0.26 | -0.507 ± 0.37 |
| GAGGAGCAAUAUUACGCGCG | -2.81 ± 0.28 | -0.781 ± 0.39 |
| GAGGAGCAAUAUUACGGAUC | -1.61 ± 0.16 | -0.13 ± 0.17 |
| GAGGAGCAAUAUUACGGAUU | -3.61 ± 0.18 | -1.95 ± 0.17 |
| GAGGAGCAAUAUUACGGCGC | -1.62 ± 0.34 | -0.697 ± 0.37 |
| GAGGAGCAAUAUUACGUAAC | -1.59 ± 0.19 | -2.72 ± 0.41 |
| GAGGAGCAAUAUUACGUAAU | -3.87 ± 0.22 | -2.54 ± 0.19 |
| GAGGAGCAAUAUUACGUACG | -2.21 ± 0.19 |  |
| GAGGAGCAAUAUUACGUAGG | -2.42 ± 0.42 | -1.27 ± 0.23 |
| GAGGAGCAAUAUUACGUAUC | -4.63 ± 0.42 | -2.74 ± 0.33 |
| GAGGAGCAAUAUUACGUGCG | -2.06 ± 0.15 | -1.39 ± 0.17 |
| GAGUAGCAAUAUUACGACCC | 0.0573 ± 0.39 |  |
| GAGUAGCAAUAUUACGACCG | -3.1 ± 0.39 | -0.977 ± 0.37 |
| GAGUAGCAAUAUUACGAUCU | -1.59 ± 0.18 | -0.479 ± 0.16 |
| GAGUAGCAAUAUUACGCAAU |  | -2.34 ± 0.31 |
| GAGUAGCAAUAUUACGCAUG | -0.973 ± 0.29 | -0.606 ± 0.47 |
| GAGUAGCAAUAUUACGCCAC | -3.64 ± 0.28 | -0.452 ± 0.21 |
| GAGUAGCAAUAUUACGCCAG | -3.3 ± 0.26 | -2.75 ± 0.48 |
| GAGUAGCAAUAUUACGCCCA | -1.78 ± 0.39 | -1.39 ± 0.24 |
| GAGUAGCAAUAUUACGCCCU | -0.812 ± 0.24 | -0.124 ± 0.23 |
| GAGUAGCAAUAUUACGCCGA | -1.54 ± 0.17 | -0.774 ± 0.13 |
| GAGUAGCAAUAUUACGCCUG | -1.23 ± 0.13 | -0.972 ± 0.15 |
| GAGUAGCAAUAUUACGGAAG | -3.65 ± 0.23 | -2.71 ± 0.26 |
| GAGUAGCAAUAUUACGGAAU | -2.46 ± 0.31 | -1.32 ± 0.23 |

| Sequence | self-splicing fitness (ln) (30 °C) | self-splicing fitness (ln) (37 °C) |
| --- | --- | --- |
| GAGUAGCAAUAUUACGGAGA | -2.29 ± 0.37 | -2.12 ± 0.29 |
| GAGUAGCAAUAUUACGGAUG | -1.42 ± 0.17 |  |
| GAGUAGCAAUAUUACGGUAA | -2.23 ± 0.18 | -1.25 ± 0.16 |
| GAGUAGCAAUAUUACGGUGU | -2.71 ± 0.11 | -2.35 ± 0.18 |
| GAGUAGCAAUAUUACGUCCA | -1.32 ± 0.14 | -0.346 ± 0.16 |
| GAGUAGCAAUAUUACGUCCU | 0.0223 ± 0.087 | 0.18 ± 0.15 |
| GAGUAGCAAUAUUACGUGAC | -1.42 ± 0.22 | -1.89 ± 0.39 |
| GAGUAGCAAUAUUACGUUCG | -2.12 ± 0.15 | -0.913 ± 0.15 |
| GAUAAGCAAUAUUACGACCG | -1.01 ± 0.18 | -0.581 ± 0.36 |
| GAUAAGCAAUAUUACGACUU | 0.544 ± 0.08 | 0.0887 ± 0.095 |
| GAUAAGCAAUAUUACGCAUU | -2.5 ± 0.32 | -2.26 ± 0.35 |
| GAUAAGCAAUAUUACGCCUG | -0.902 ± 0.09 | 0.488 ± 0.13 |
| GAUAAGCAAUAUUACGCGCC | -1.76 ± 0.17 | -1.31 ± 0.26 |
| GAUAAGCAAUAUUACGGAAA | -2.35 ± 0.41 | -1.67 ± 0.29 |
| GAUAAGCAAUAUUACGGAGG | -1.43 ± 0.13 | -2.92 ± 0.29 |
| GAUAAGCAAUAUUACGGCAG | -3.5 ± 0.32 | -2.51 ± 0.33 |
| GAUAAGCAAUAUUACGGGCC | -1.48 ± 0.17 | -1.13 ± 0.18 |
| GAUAAGCAAUAUUACGGGGG | -3.65 ± 0.26 | -3.04 ± 0.28 |
| GAUAAGCAAUAUUACGGGUU | -2.18 ± 0.12 | -2.26 ± 0.15 |
| GAUAAGCAAUAUUACGGUCA | -1.71 ± 0.12 | -0.711 ± 0.11 |
| GAUAAGCAAUAUUACGUACU | -0.466 ± 0.089 | -0.373 ± 0.12 |
| GAUAAGCAAUAUUACGUAGC | -2.22 ± 0.13 | -0.793 ± 0.12 |
